Consider two molecules from publication PMC4414810 (ACS chemical biology, 2015).

One may read the Kd as the free concentration of one partner at which half of the binding sites on the other are occupied at equilibrium, for simple one-to-one binding. A high value points to a looser complex. As usually defined, the IC50 is the concentration needed to halve the response being measured. Read a high IC50 as lower potency. The Ki is the equilibrium dissociation constant of an inhibitor or competing ligand from its target. Low values mean tighter binding, high ones weaker binding.

Where no end group is shown, it is not given here.

Test [1] has as its target T1, HalM2 (haloduracin lanthipeptide synthetase) (Bacillus halodurans C-125). The experiment in a line: fluorescence polarisation. A general note: In fluorescence polarisation assays a small probe gives low polarisation when free and higher when bound to something large.
Test [2] concerns the target T1, HalM2 (haloduracin lanthipeptide …). The experiment in a line: fluorescence polarisation. The source holds these as a separate data set.

In turn, MVNSKDLRNPEFRKAQGLQFVDEVNEKELSSLAGSGDIEGR (also: 5-FAM on short synthetic peptide ligated to introduced N-terminal Cys) [fluorescein-labeled HalA2 leader peptide] had a Kd in test [1] of 3.7 ± 1.3 µM.
On to MTNLLKEWKMPLERTHNNSNPAGDIFQELEDQDILAGIEGR [HalA1 leader peptide], for which, in test [2], the IC50 came out at 4.1 ± 1.1 µM and the Ki was found to be 4.1 ± 1.1 µM.
